Our source for the THAP1 transcriptional activity values is the supplement of paper PMC11811203.

To fix the notation:
B1: THAP1; numbered along this chain (parent)
chain: MVQSCSAYGCKNRYDKDKPVSFHKFPLTRPSLCKEWEAAVRRKNFKPTKYSSICSEHFTPDCFKRECNNKLLKENAVPTIFLCTEPHDKKEDLLEPQEQLPPPPLPPPVSQVDAAIGLLMPPLQTPVNLSVFCDHNYTVEDTMHQRKRIHQLEQQVEKLRKKLKTAQQRCRRQERQLEKLKEVVHFQKEKDDVSERGYVILPNDYFEIVEVPA

Variants of B1 are the subject of the series. Nature of the series: THAP1 transcriptional activity (GFP+/GFP- enrichment relative to wild-type constructs) (ratio to WT); higher = more THAP1 activity (PSMB5 reporter activation). As to conditions: with PSMB5 promoter-GFP reporter. How it is done:
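Deep mutational scan of human THAP1. Site-saturation single amino acid variant library (residues 2-213) was expressed by lentivirus at MOI ~0.3 in THAP1-knockout HEK-293T cells carrying an endogenous PSMB5 promoter-GFP knock-in reporter. Five days post-transduction, BFP+ cells were FACS-sorted into GFP dim and GFP bright populations and variants were counted by Illumina sequencing. Activity is the GFP-bright/GFP-dim read fold change, mean of 2 replicates, divided by the mean fold change of wild-type (synonymous) constructs in the same screen pool; WT = 1.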
On to MWQSCSAYGCKNRYDKDKPVSFHKFPLTRPSLCKEWEAAVRRKNFKPTKYSSICSEHFTPDCFKRECNNKLLKENAVPTIFLCTEPHDKKEDLLEPQEQLPPPPLPPPVSQVDAAIGLLMPPLQTPVNLSVFCDHNYTVEDTMHQRKRIHQLEQQVEKLRKKLKTAQQRCRRQERQLEKLKEVVHFQKEKDDVSERGYVILPNDYFEIVEVPA [V2W], for which the THAP1 transcriptional activity was 0.109.
In the case of MGQSCSAYGCKNRYDKDKPVSFHKFPLTRPSLCKEWEAAVRRKNFKPTKYSSICSEHFTPDCFKRECNNKLLKENAVPTIFLCTEPHDKKEDLLEPQEQLPPPPLPPPVSQVDAAIGLLMPPLQTPVNLSVFCDHNYTVEDTMHQRKRIHQLEQQVEKLRKKLKTAQQRCRRQERQLEKLKEVVHFQKEKDDVSERGYVILPNDYFEIVEVPA [V2G], the THAP1 transcriptional activity is 0.0831.
As to MRQSCSAYGCKNRYDKDKPVSFHKFPLTRPSLCKEWEAAVRRKNFKPTKYSSICSEHFTPDCFKRECNNKLLKENAVPTIFLCTEPHDKKEDLLEPQEQLPPPPLPPPVSQVDAAIGLLMPPLQTPVNLSVFCDHNYTVEDTMHQRKRIHQLEQQVEKLRKKLKTAQQRCRRQERQLEKLKEVVHFQKEKDDVSERGYVILPNDYFEIVEVPA [V2R], the THAP1 transcriptional activity was 0.122.
Then MFQSCSAYGCKNRYDKDKPVSFHKFPLTRPSLCKEWEAAVRRKNFKPTKYSSICSEHFTPDCFKRECNNKLLKENAVPTIFLCTEPHDKKEDLLEPQEQLPPPPLPPPVSQVDAAIGLLMPPLQTPVNLSVFCDHNYTVEDTMHQRKRIHQLEQQVEKLRKKLKTAQQRCRRQERQLEKLKEVVHFQKEKDDVSERGYVILPNDYFEIVEVPA [V2F], with 0.161; and MHQSCSAYGCKNRYDKDKPVSFHKFPLTRPSLCKEWEAAVRRKNFKPTKYSSICSEHFTPDCFKRECNNKLLKENAVPTIFLCTEPHDKKEDLLEPQEQLPPPPLPPPVSQVDAAIGLLMPPLQTPVNLSVFCDHNYTVEDTMHQRKRIHQLEQQVEKLRKKLKTAQQRCRRQERQLEKLKEVVHFQKEKDDVSERGYVILPNDYFEIVEVPA [V2H], with 0.247.
Then MIQSCSAYGCKNRYDKDKPVSFHKFPLTRPSLCKEWEAAVRRKNFKPTKYSSICSEHFTPDCFKRECNNKLLKENAVPTIFLCTEPHDKKEDLLEPQEQLPPPPLPPPVSQVDAAIGLLMPPLQTPVNLSVFCDHNYTVEDTMHQRKRIHQLEQQVEKLRKKLKTAQQRCRRQERQLEKLKEVVHFQKEKDDVSERGYVILPNDYFEIVEVPA [V2I], with 0.157.
Regarding MTQSCSAYGCKNRYDKDKPVSFHKFPLTRPSLCKEWEAAVRRKNFKPTKYSSICSEHFTPDCFKRECNNKLLKENAVPTIFLCTEPHDKKEDLLEPQEQLPPPPLPPPVSQVDAAIGLLMPPLQTPVNLSVFCDHNYTVEDTMHQRKRIHQLEQQVEKLRKKLKTAQQRCRRQERQLEKLKEVVHFQKEKDDVSERGYVILPNDYFEIVEVPA [V2T], the THAP1 transcriptional activity turned out to be 0.21.
Then MCQSCSAYGCKNRYDKDKPVSFHKFPLTRPSLCKEWEAAVRRKNFKPTKYSSICSEHFTPDCFKRECNNKLLKENAVPTIFLCTEPHDKKEDLLEPQEQLPPPPLPPPVSQVDAAIGLLMPPLQTPVNLSVFCDHNYTVEDTMHQRKRIHQLEQQVEKLRKKLKTAQQRCRRQERQLEKLKEVVHFQKEKDDVSERGYVILPNDYFEIVEVPA [V2C], with 0.162; and MMQSCSAYGCKNRYDKDKPVSFHKFPLTRPSLCKEWEAAVRRKNFKPTKYSSICSEHFTPDCFKRECNNKLLKENAVPTIFLCTEPHDKKEDLLEPQEQLPPPPLPPPVSQVDAAIGLLMPPLQTPVNLSVFCDHNYTVEDTMHQRKRIHQLEQQVEKLRKKLKTAQQRCRRQERQLEKLKEVVHFQKEKDDVSERGYVILPNDYFEIVEVPA [V2M], with 0.183.
Then MDQSCSAYGCKNRYDKDKPVSFHKFPLTRPSLCKEWEAAVRRKNFKPTKYSSICSEHFTPDCFKRECNNKLLKENAVPTIFLCTEPHDKKEDLLEPQEQLPPPPLPPPVSQVDAAIGLLMPPLQTPVNLSVFCDHNYTVEDTMHQRKRIHQLEQQVEKLRKKLKTAQQRCRRQERQLEKLKEVVHFQKEKDDVSERGYVILPNDYFEIVEVPA [V2D], with 0.178.
Then MPQSCSAYGCKNRYDKDKPVSFHKFPLTRPSLCKEWEAAVRRKNFKPTKYSSICSEHFTPDCFKRECNNKLLKENAVPTIFLCTEPHDKKEDLLEPQEQLPPPPLPPPVSQVDAAIGLLMPPLQTPVNLSVFCDHNYTVEDTMHQRKRIHQLEQQVEKLRKKLKTAQQRCRRQERQLEKLKEVVHFQKEKDDVSERGYVILPNDYFEIVEVPA [V2P], with 0.71; and MYQSCSAYGCKNRYDKDKPVSFHKFPLTRPSLCKEWEAAVRRKNFKPTKYSSICSEHFTPDCFKRECNNKLLKENAVPTIFLCTEPHDKKEDLLEPQEQLPPPPLPPPVSQVDAAIGLLMPPLQTPVNLSVFCDHNYTVEDTMHQRKRIHQLEQQVEKLRKKLKTAQQRCRRQERQLEKLKEVVHFQKEKDDVSERGYVILPNDYFEIVEVPA [V2Y], with 0.16.
Regarding MSQSCSAYGCKNRYDKDKPVSFHKFPLTRPSLCKEWEAAVRRKNFKPTKYSSICSEHFTPDCFKRECNNKLLKENAVPTIFLCTEPHDKKEDLLEPQEQLPPPPLPPPVSQVDAAIGLLMPPLQTPVNLSVFCDHNYTVEDTMHQRKRIHQLEQQVEKLRKKLKTAQQRCRRQERQLEKLKEVVHFQKEKDDVSERGYVILPNDYFEIVEVPA [V2S], the THAP1 transcriptional activity amounted to 0.297.
MNQSCSAYGCKNRYDKDKPVSFHKFPLTRPSLCKEWEAAVRRKNFKPTKYSSICSEHFTPDCFKRECNNKLLKENAVPTIFLCTEPHDKKEDLLEPQEQLPPPPLPPPVSQVDAAIGLLMPPLQTPVNLSVFCDHNYTVEDTMHQRKRIHQLEQQVEKLRKKLKTAQQRCRRQERQLEKLKEVVHFQKEKDDVSERGYVILPNDYFEIVEVPA [V2N]: the THAP1 transcriptional activity was found to be 0.157.
Then MEQSCSAYGCKNRYDKDKPVSFHKFPLTRPSLCKEWEAAVRRKNFKPTKYSSICSEHFTPDCFKRECNNKLLKENAVPTIFLCTEPHDKKEDLLEPQEQLPPPPLPPPVSQVDAAIGLLMPPLQTPVNLSVFCDHNYTVEDTMHQRKRIHQLEQQVEKLRKKLKTAQQRCRRQERQLEKLKEVVHFQKEKDDVSERGYVILPNDYFEIVEVPA [V2E], with 0.154; and MKQSCSAYGCKNRYDKDKPVSFHKFPLTRPSLCKEWEAAVRRKNFKPTKYSSICSEHFTPDCFKRECNNKLLKENAVPTIFLCTEPHDKKEDLLEPQEQLPPPPLPPPVSQVDAAIGLLMPPLQTPVNLSVFCDHNYTVEDTMHQRKRIHQLEQQVEKLRKKLKTAQQRCRRQERQLEKLKEVVHFQKEKDDVSERGYVILPNDYFEIVEVPA [V2K], with 0.0614.
Then MLQSCSAYGCKNRYDKDKPVSFHKFPLTRPSLCKEWEAAVRRKNFKPTKYSSICSEHFTPDCFKRECNNKLLKENAVPTIFLCTEPHDKKEDLLEPQEQLPPPPLPPPVSQVDAAIGLLMPPLQTPVNLSVFCDHNYTVEDTMHQRKRIHQLEQQVEKLRKKLKTAQQRCRRQERQLEKLKEVVHFQKEKDDVSERGYVILPNDYFEIVEVPA [V2L], with 0.214; and MQQSCSAYGCKNRYDKDKPVSFHKFPLTRPSLCKEWEAAVRRKNFKPTKYSSICSEHFTPDCFKRECNNKLLKENAVPTIFLCTEPHDKKEDLLEPQEQLPPPPLPPPVSQVDAAIGLLMPPLQTPVNLSVFCDHNYTVEDTMHQRKRIHQLEQQVEKLRKKLKTAQQRCRRQERQLEKLKEVVHFQKEKDDVSERGYVILPNDYFEIVEVPA [V2Q], with 0.178; and MVDSCSAYGCKNRYDKDKPVSFHKFPLTRPSLCKEWEAAVRRKNFKPTKYSSICSEHFTPDCFKRECNNKLLKENAVPTIFLCTEPHDKKEDLLEPQEQLPPPPLPPPVSQVDAAIGLLMPPLQTPVNLSVFCDHNYTVEDTMHQRKRIHQLEQQVEKLRKKLKTAQQRCRRQERQLEKLKEVVHFQKEKDDVSERGYVILPNDYFEIVEVPA [Q3D], with 0.119.
In the case of MVESCSAYGCKNRYDKDKPVSFHKFPLTRPSLCKEWEAAVRRKNFKPTKYSSICSEHFTPDCFKRECNNKLLKENAVPTIFLCTEPHDKKEDLLEPQEQLPPPPLPPPVSQVDAAIGLLMPPLQTPVNLSVFCDHNYTVEDTMHQRKRIHQLEQQVEKLRKKLKTAQQRCRRQERQLEKLKEVVHFQKEKDDVSERGYVILPNDYFEIVEVPA [Q3E], the THAP1 transcriptional activity stood at 0.155.
Then MVHSCSAYGCKNRYDKDKPVSFHKFPLTRPSLCKEWEAAVRRKNFKPTKYSSICSEHFTPDCFKRECNNKLLKENAVPTIFLCTEPHDKKEDLLEPQEQLPPPPLPPPVSQVDAAIGLLMPPLQTPVNLSVFCDHNYTVEDTMHQRKRIHQLEQQVEKLRKKLKTAQQRCRRQERQLEKLKEVVHFQKEKDDVSERGYVILPNDYFEIVEVPA [Q3H], with 1.01; and MVGSCSAYGCKNRYDKDKPVSFHKFPLTRPSLCKEWEAAVRRKNFKPTKYSSICSEHFTPDCFKRECNNKLLKENAVPTIFLCTEPHDKKEDLLEPQEQLPPPPLPPPVSQVDAAIGLLMPPLQTPVNLSVFCDHNYTVEDTMHQRKRIHQLEQQVEKLRKKLKTAQQRCRRQERQLEKLKEVVHFQKEKDDVSERGYVILPNDYFEIVEVPA [Q3G], with 0.159; and MVKSCSAYGCKNRYDKDKPVSFHKFPLTRPSLCKEWEAAVRRKNFKPTKYSSICSEHFTPDCFKRECNNKLLKENAVPTIFLCTEPHDKKEDLLEPQEQLPPPPLPPPVSQVDAAIGLLMPPLQTPVNLSVFCDHNYTVEDTMHQRKRIHQLEQQVEKLRKKLKTAQQRCRRQERQLEKLKEVVHFQKEKDDVSERGYVILPNDYFEIVEVPA [Q3K], with 0.266.
Then MVISCSAYGCKNRYDKDKPVSFHKFPLTRPSLCKEWEAAVRRKNFKPTKYSSICSEHFTPDCFKRECNNKLLKENAVPTIFLCTEPHDKKEDLLEPQEQLPPPPLPPPVSQVDAAIGLLMPPLQTPVNLSVFCDHNYTVEDTMHQRKRIHQLEQQVEKLRKKLKTAQQRCRRQERQLEKLKEVVHFQKEKDDVSERGYVILPNDYFEIVEVPA [Q3I], with 0.678; and MVFSCSAYGCKNRYDKDKPVSFHKFPLTRPSLCKEWEAAVRRKNFKPTKYSSICSEHFTPDCFKRECNNKLLKENAVPTIFLCTEPHDKKEDLLEPQEQLPPPPLPPPVSQVDAAIGLLMPPLQTPVNLSVFCDHNYTVEDTMHQRKRIHQLEQQVEKLRKKLKTAQQRCRRQERQLEKLKEVVHFQKEKDDVSERGYVILPNDYFEIVEVPA [Q3F], with 0.143.
Then MVLSCSAYGCKNRYDKDKPVSFHKFPLTRPSLCKEWEAAVRRKNFKPTKYSSICSEHFTPDCFKRECNNKLLKENAVPTIFLCTEPHDKKEDLLEPQEQLPPPPLPPPVSQVDAAIGLLMPPLQTPVNLSVFCDHNYTVEDTMHQRKRIHQLEQQVEKLRKKLKTAQQRCRRQERQLEKLKEVVHFQKEKDDVSERGYVILPNDYFEIVEVPA [Q3L], with 0.354; and MVCSCSAYGCKNRYDKDKPVSFHKFPLTRPSLCKEWEAAVRRKNFKPTKYSSICSEHFTPDCFKRECNNKLLKENAVPTIFLCTEPHDKKEDLLEPQEQLPPPPLPPPVSQVDAAIGLLMPPLQTPVNLSVFCDHNYTVEDTMHQRKRIHQLEQQVEKLRKKLKTAQQRCRRQERQLEKLKEVVHFQKEKDDVSERGYVILPNDYFEIVEVPA [Q3C], with 0.269.
On to MVASCSAYGCKNRYDKDKPVSFHKFPLTRPSLCKEWEAAVRRKNFKPTKYSSICSEHFTPDCFKRECNNKLLKENAVPTIFLCTEPHDKKEDLLEPQEQLPPPPLPPPVSQVDAAIGLLMPPLQTPVNLSVFCDHNYTVEDTMHQRKRIHQLEQQVEKLRKKLKTAQQRCRRQERQLEKLKEVVHFQKEKDDVSERGYVILPNDYFEIVEVPA [Q3A], for which the THAP1 transcriptional activity is 0.849.
